How the values were obtained:
[1] = target: ZIKV NS4A N-terminal peptide construct (residues 4–58) with N-terminal His-tag and linker (Zika virus (strain MR-766)); assay: AUC; sedimentation equilibrium; approx. 10, 20 and 40 µM in 50 mM Tris–HCl pH 7.3, 150 mM NaCl; 23,000, 28,000, 34,500 and 42,000 rpm; 280 nm; self-equilibrium models in SEDPHAT, monomer to dimer to trimer
[2] = target: ZIKV NS4A N-terminal peptide construct (residues 4–58) with N-terminal His-tag and linker (Zika virus (strain MR-766)); assay: AUC; sedimentation velocity; 50 mM Tris–HCl (pH 7.4), approx. 3–300 µM, 50,000 rpm, 20 °C, absorbance at 230 or 280 nm; c(s), c(s,ff0) and hybrid local continuous global discrete (non-interacting) analysis; no detergent or lipids

In the case of “ZIKV NS4A N-terminal peptide construct (residues 4–58) with N-terminal His-tag and linker”, the percent of monomers in trimers at 50 µM [1] is reported as 50%, the stoichiometry N [1] is reported as 3 and the stoichiometry N [2] is reported as 3.

From article PMC10163220
